Measurements: US20100093619A1

Columns and labels:
Assay in all cases: cell-based or functional assay
[1] = target: serine-like chymotrypsin protease activity from Spodoptera littoralis (cotton leafworm) gut extracts (Spodoptera littoralis)
[2] = target: cysteine-like cathepsin-L protease activity from Bemisia tabaci (sweetpotato whitefly) extracts (Bemisia tabaci)
[3] = target: serine-like trypsin protease activity from Sesamia nonagrioides (Mediterranean corn borer) gut extracts (Sesamia nonagrioides)
[4] = target: cysteine-like cathepsin-B protease activity from Acyrthosiphon pisum (pea aphid) extracts (Acyrthosiphon pisum)
[5] = target: cysteine-like cathepsin-L protease activity from Tetranychus urticae (spider mite) extracts (Tetranychus urticae)
[6] = target: cysteine-like cathepsin-L protease activity from Tribolium castaneum (red flour beetle) extracts (Tribolium castaneum)
[7] = target: cysteine-like cathepsin-L protease activity from Acyrthosiphon pisum (pea aphid) extracts (Acyrthosiphon pisum)
[8] = target: cysteine-like cathepsin-L protease activity from Leptinotarsa decemlineata (Colorado potato beetle) gut extracts (Leptinotarsa decemlineata)
[9] = target: serine-like trypsin protease activity from Ostrinia nubilalis (European corn borer) gut extracts (Ostrinia nubilalis)
[10] = target: serine-like trypsin protease activity from Spodoptera littoralis (cotton leafworm) gut extracts (Spodoptera littoralis)
[11] = target: serine-like chymotrypsin protease activity from Sesamia nonagrioides (Mediterranean corn borer) gut extracts (Sesamia nonagrioides)
[12] = target: cysteine-like cathepsin-B protease activity from Leptinotarsa decemlineata (Colorado potato beetle) gut extracts (Leptinotarsa decemlineata)

B1: recombinant AtSerpin1 (Arabidopsis thaliana serpin-1, At1g47710), HIS6-tagged (protein, not shown: small tags and cut ends)
chain: MDVRESISLQNQVSMNLAKHVITTVSQNSNVIFSPASINVVLSIIAAGSAGATKDQILSFLKFSSTDQLNSFSSEIVSAVLADGSANGGPKLSVANGAWIDKSLSFKPSFKQLLEDSYKAASNQADFQSKAVEVIAEVNSWAEKETNGLITEVLPEGSADSMTKLIFANALYFKGTWNEKFDESLTQEGEFHLLDGNKVTAPFMTSKKKQYVSAYDGFKVLGLPYLQGQDKRQFSMYFYLPDANNGLSDLLDKIVSTPGFLDNHIPRRQVKVREFKIPKFKFSFGFDASNVLKGLGLTSPFSGEEGLTEMVESPEMGKNLCVSNIFHKACIEVNEEGTEAAAASAGVIKLRGLLMEEDEIDFVADHPFLLVVTENITGVVLFIGQVVDPLH
[1]
  % Inhibition of chymotrypsin activity at 1.25 µM AtSerpin1: 10%
  % Inhibition of chymotrypsin activity at 5 µM AtSerpin1: 31%
  % Inhibition of chymotrypsin activity at 10 µM AtSerpin1: 40%
  concentration of AtSerpin1 for 50% inhibition of chymotrypsin activity (FIG. 10): 10 to 20 µM
[2]
  % inhibition of cathepsin-L activity at 20 µM AtSerpin1 (FIG. 15): 45%
[3]
  % Inhibition of trypsin activity at 1.25 µM AtSerpin1: 90%
  % Inhibition of trypsin activity at 5 µM AtSerpin1: 97%
  % Inhibition of trypsin activity at 10 µM AtSerpin1: 98%
  concentration of AtSerpin1 for 50% inhibition of trypsin activity (FIG. 11): 0.1 µM
[4]
  % Inhibition of cathepsin B activity at 1.25 µM AtSerpin1: 50%
  % Inhibition of cathepsin B activity at 5 µM AtSerpin1: 55%
  % Inhibition of cathepsin B activity at 10 µM AtSerpin1: 55%
  concentration of AtSerpin1 for 50% inhibition of cathepsin-B activity (FIG. 14): 1 µM
[5]
  concentration of AtSerpin1 for 50% inhibition of cathepsin-L activity (FIG. 16): 2 µM
[6]
  IC50 of inhibition of cathepsin-L activity (FIG. 13): 4 µM
[7]
  % Inhibition of cathepsin L activity at 1.25 µM AtSerpin1: 42%
  % Inhibition of cathepsin L activity at 5 µM AtSerpin1: 42%
  % Inhibition of cathepsin L activity at 10 µM AtSerpin1: 39%
  plateau of % inhibition of cathepsin-L activity (FIG. 14): 60%
[8]
  % Inhibition of cathepsin L activity at 1.25 µM AtSerpin1: 4%
  % Inhibition of cathepsin L activity at 5 µM AtSerpin1: 34%
  % Inhibition of cathepsin L activity at 10 µM AtSerpin1: 48%
  concentration of AtSerpin1 for 50% inhibition of cathepsin-L activity (fluorometric substrate, FIG. 12): > 10 µM
[9]
  % Inhibition of trypsin activity at 2 µM AtSerpin1: 28%
[10]
  % Inhibition of trypsin activity at 1.25 µM AtSerpin1: 52%
  % Inhibition of trypsin activity at 5 µM AtSerpin1: 83%
  % Inhibition of trypsin activity at 10 µM AtSerpin1: 90%
  concentration of AtSerpin1 for 50% inhibition of trypsin activity (fluorometric substrate, FIG. 10): 1 µM
[11]
  concentration of AtSerpin1 for ≧50% inhibition of chymotrypsin activity (FIG. 11): > 10 µM
[12]
  % Inhibition of cathepsin B activity at 1.25 µM AtSerpin1: 40%
  % Inhibition of cathepsin B activity at 5 µM AtSerpin1: 47%
  % Inhibition of cathepsin B activity at 10 µM AtSerpin1: 46%
  concentration of AtSerpin1 for 50% inhibition of cathepsin-B activity (fluorometric substrate, FIG. 12): > 10 µM
